Data reported in patent US20160039904A1, “STABILIZED SINGLE HUMAN CD4 DOMAINS AND FUSION PROTEINS” (priority 2013, published 2016).

Experiments:
Experiment in all cases: cell-based or functional assay
[1] = molecular target: HIV-1 Env of isolate KNH1088.EC5 (HIV-1)
[2] = molecular target: HIV-1 Env of isolate CNE53 (HIV-1)
[3] = molecular target: HIV-1 Env of isolate CAM0015BBY.EC3 (HIV-1)
[4] = molecular target: HIV-1 Env of isolate PBL286.VRC36aPV (HIV-1)
[5] = molecular target: HIV-1 Env of isolate YN192.31 (HIV-1)
[6] = molecular target: HIV-1 Env of isolate CNE5 (HIV-1)
[7] = molecular target: HIV-1 Env of isolate CNE15 (HIV-1)
[8] = molecular target: HIV-1 Env of isolate CNE57 (HIV-1)
[9] = molecular target: HIV-1 Env of isolate GS-015.EC12 (HIV-1)
[10] = molecular target: HIV-1 Env of isolate CNE6 (HIV-1)
[11] = molecular target: HIV-1 Env of isolate CNE16 (HIV-1)
[12] = molecular target: HIV-1 Env of isolate CNE68 (HIV-1)
[13] = molecular target: HIV-1 Env of isolate CNE65 (HIV-1)
[14] = molecular target: HIV-1 Env of isolate BZ167.ec9 (HIV-1)
[15] = molecular target: HIV-1 Env of isolate 55815.EC3 (HIV-1)
[16] = molecular target: HIV-1 Env of isolate GX2010.36 (HIV-1)
[17] = molecular target: HIV-1 Env of isolate AE03 (HIV-1)
[18] = molecular target: HIV-1 Env of isolate CNE11 (HIV-1)
[19] = molecular target: HIV-1 Env of isolate CH119 (HIV-1)
[20] = molecular target: HIV-1 Env of isolate CNE30 (HIV-1)
[21] = molecular target: HIV-1 Env of isolate CH120 (HIV-1)
[22] = molecular target: HIV-1 Env of isolate CNE9 (HIV-1)
[23] = molecular target: HIV-1 Env of isolate N1 1046.e3 PV (HIV-1)
[24] = molecular target: HIV-1 Env of isolate CH117 (HIV-1)
[25] = molecular target: HIV-1 Env of isolate 57128.VRC18 (HIV-1)
[26] = molecular target: HIV-1 Env of isolate CM240.EC1 (HIV-1)
[27] = molecular target: HIV-1 Env of isolate CH91 (HIV-1)
[28] = molecular target: HIV-1 Env of isolate CH110 (HIV-1)
[29] = molecular target: HIV-1 Env of isolate CNE20 (HIV-1)
[30] = molecular target: HIV-1 Env of isolate CNE58 (HIV-1)
[31] = molecular target: HIV-1 Env of isolate CNE3 (HIV-1)
[32] = molecular target: HIV-1 Env of isolate CNE47 (HIV-1)
[33] = molecular target: HIV-1 Env of isolate CNE17 (HIV-1)
[34] = molecular target: HIV-1 Env of isolate CH64 (HIV-1)
[35] = molecular target: HIV-1 Env of isolate CNE14 (HIV-1)
[36] = molecular target: HIV-1 Env of isolate CH114 (HIV-1)
[37] = molecular target: HIV-1 Env of isolate AE20 (HIV-1)
[38] = molecular target: HIV-1 Env of isolate CNE1 (HIV-1)
[39] = molecular target: HIV-1 Env of isolate A07412VRC12A (HIV-1)
[40] = molecular target: HIV-1 Env of isolate CNE66 (HIV-1)
[41] = molecular target: HIV-1 Env of isolate KNH1144.EC1 (HIV-1)
[42] = molecular target: HIV-1 Env of isolate CNE23 (HIV-1)

Which results are given for “D1D2Fc (from UniProt P01730 26-203) (Fc fusion)”?
IC50, neutralization in TZM-bl cell-based assay [1]: > 250 nM; IC90, neutralization in TZM-bl cell-based assay [1]: > 250 nM; neutralization IC50 [2]: 14 nM; neutralization IC90 [2]: > 250 nM; IC50, neutralization in TZM-bl cell-based assay [3]: 41 nM; IC90, neutralization in TZM-bl cell-based assay [3]: > 250 nM; IC50, neutralization in TZM-bl cell-based assay [4]: 87 nM; IC90, neutralization in TZM-bl cell-based assay [4]: > 250 nM; neutralization IC50 [5]: 155 nM; neutralization IC90 [5]: > 250 nM; neutralization IC50 [6]: 94 nM; neutralization IC90 [6]: 236 nM; neutralization IC50 [7]: 106 nM; neutralization IC90 [7]: > 250 nM; neutralization IC50 [8]: 250 nM; neutralization IC90 [8]: > 250 nM; IC50, neutralization in TZM-bl cell-based assay [9]: 0.2 nM; neutralization IC50 [10]: 68 nM; neutralization IC90 [10]: 192 nM; neutralization IC50 [11]: 11 nM; neutralization IC90 [11]: 229 nM; neutralization IC50 [12]: 9.7 nM; neutralization IC90 [12]: 133 nM; neutralization IC50 [13]: 15 nM; neutralization IC90 [13]: 115 nM; IC50, neutralization in TZM-bl cell-based assay [14]: 13 nM; IC90, neutralization in TZM-bl cell-based assay [14]: 60 nM; IC50, neutralization in TZM-bl cell-based assay [15]: 6.2 nM; IC90, neutralization in TZM-bl cell-based assay [15]: 116 nM; neutralization IC50 [16]: 12 nM; neutralization IC90 [16]: > 250 nM; neutralization IC50 [17]: > 250 nM; neutralization IC90 [17]: > 250 nM; neutralization IC50 [18]: > 250 nM; neutralization IC90 [18]: > 250 nM; neutralization IC50 [19]: 85 nM; neutralization IC90 [19]: > 250 nM; neutralization IC50 [20]: 17 nM; neutralization IC90 [20]: 211 nM; neutralization IC50 [21]: 104 nM; neutralization IC90 [21]: > 250 nM; neutralization IC50 [22]: 9.9 nM; neutralization IC90 [22]: 63 nM; IC50, neutralization in TZM-bl cell-based assay [23]: 183 nM; IC90, neutralization in TZM-bl cell-based assay [23]: > 250 nM; neutralization IC50 [24]: 27 nM; neutralization IC90 [24]: > 250 nM; IC90, neutralization in TZM-bl cell-based assay [25]: 41 nM; IC50, neutralization in TZM-bl cell-based assay [26]: 20 nM; IC90, neutralization in TZM-bl cell-based assay [26]: > 250 nM; neutralization IC50 [27]: 35 nM; neutralization IC90 [27]: > 250 nM; neutralization IC50 [28]: 28 nM; neutralization IC90 [28]: > 250 nM; neutralization IC50 [29]: 65 nM; neutralization IC90 [29]: > 250 nM; neutralization IC50 [30]: > 250 nM; neutralization IC90 [30]: > 250 nM; neutralization IC50 [31]: > 250 nM; neutralization IC90 [31]: > 250 nM; neutralization IC50 [32]: 152 nM; neutralization IC90 [32]: > 250 nM; neutralization IC50 [33]: 11 nM; neutralization IC90 [33]: 231 nM; neutralization IC50 [34]: 48 nM; neutralization IC90 [34]: > 250 nM; neutralization IC50 [35]: 105 nM; neutralization IC90 [35]: 248 nM; neutralization IC50 [36]: 23 nM; neutralization IC90 [36]: 198 nM; neutralization IC50 [37]: 50 nM; neutralization IC90 [37]: > 250 nM; neutralization IC50 [38]: 197 nM; neutralization IC90 [38]: > 250 nM; IC50, neutralization in TZM-bl cell-based assay [39]: 57 nM; IC90, neutralization in TZM-bl cell-based assay [39]: > 250 nM; neutralization IC50 [40]: 159 nM; neutralization IC90 [40]: > 250 nM; IC50, neutralization in TZM-bl cell-based assay [41]: 4.8 nM; neutralization IC50 [42]: > 250 nM; neutralization IC90 [42]: > 250 nM
